Laboratory results reported in the supplement of paper PMC9732359.
± gives the uncertainty stated by the source.

Assay: protein stability index of a GFP-peptide fusion (yeast GPS) (PSI 1-4); higher = more stable; sorted into four equal gates, so the index is relative within each strain
How it was run: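 Tiled yeast protein peptides of 17 residues were each joined downstream of GFP, on plasmids that also express Cherry. The pooled library was maintained in yeast, and mid-log cultures in leucine-free medium were sorted into four equal gates on the GFP/Cherry ratio. Plasmids from every gate were amplified by PCR and sequenced on Illumina, with barcodes linking reads to strains. The protein stability index of a peptide is its gate-number-weighted read frequency summed over the gates.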

KKRIRLPSEERIQKIIS [YIL149C/MLP2]
protein stability index (doa10∆): 2.66 ± 0.074
protein stability index (pdr5∆): 2.49 ± 0.062
protein stability index (san1∆): 2.71 ± 0.081
protein stability index (ubr1∆): 2.72 ± 0.04

PLLLVGLDKFSNIDIRV [RPS16A]
protein stability index (doa10∆): 1.83 ± 0.073
protein stability index (pdr5∆): 1.76 ± 0.049
protein stability index (san1∆): 1.74 ± 0.094
protein stability index (ubr1∆): 2.11 ± 0.044

GSLKLIELLCGLGKSAV [NAS6]
protein stability index (san1∆): 3.08 ± 0.098

RLKEINGWEKYLHNVEL [ISW2]
protein stability index (doa10∆): 2.97 ± 0.12
protein stability index (ubr1∆): 2.94 ± 0.057

EAPAGNIDTITDAMTES [MCD1]
protein stability index (doa10∆): 2.8 ± 0.079
protein stability index (pdr5∆): 3.04 ± 0.052
protein stability index (san1∆): 2.96 ± 0.072
protein stability index (ubr1∆): 3.16 ± 0.057

LLEKANNQQRLLLKKLD [SMC3]
protein stability index (doa10∆): 2.31 ± 0.074
protein stability index (pdr5∆): 2.56 ± 0.074
protein stability index (san1∆): 2.28 ± 0.06
protein stability index (ubr1∆): 2.39 ± 0.044

KKNLGRLTRLWIKNEQE [PRP8]
protein stability index (doa10∆): 1.72 ± 0.063
protein stability index (pdr5∆): 1.89 ± 0.063
protein stability index (san1∆): 1.25 ± 0.19
protein stability index (ubr1∆): 2.5 ± 0.25

LKLDKIIHVLTTMFENT [RGR1]
protein stability index (doa10∆): 2.07 ± 0.049
protein stability index (pdr5∆): 2.43 ± 0.069
protein stability index (san1∆): 2.39 ± 0.075
protein stability index (ubr1∆): 2.73 ± 0.044

SIEFAKREKRVFLKHSL [RPN6]
protein stability index (doa10∆): 3.24 ± 0.16
protein stability index (pdr5∆): 3.4 ± 0.17
protein stability index (san1∆): 2.87 ± 0.11
protein stability index (ubr1∆): 2.7 ± 0.098

EKAKSAGVQGSKVSKQQ [RPL24B]
protein stability index (doa10∆): 3.48 ± 0.14
protein stability index (pdr5∆): 3.4 ± 0.11
protein stability index (san1∆): 3.31 ± 0.14

ETASFIPTKESLTRDFE [YIL149C/MLP2]
protein stability index (doa10∆): 2.83 ± 0.068
protein stability index (pdr5∆): 3.09 ± 0.075
protein stability index (san1∆): 2.41 ± 0.077
protein stability index (ubr1∆): 2.72 ± 0.046

AFALAKEKAPTIIFIDE [RPT5]
protein stability index (doa10∆): 2.79 ± 0.12
protein stability index (pdr5∆): 2.78 ± 0.12
protein stability index (san1∆): 2.83 ± 0.14
protein stability index (ubr1∆): 2.88 ± 0.086

ISKQRTFAVILFLIIQC [YMR129W/POM152]
protein stability index (doa10∆): 1.38 ± 0.051
protein stability index (pdr5∆): 1.38 ± 0.067
protein stability index (san1∆): 1.32 ± 0.087
protein stability index (ubr1∆): 1.51 ± 0.058

YVDTATAKRKSRKRKPK [IRR1]
protein stability index (doa10∆): 3.17 ± 0.1
protein stability index (pdr5∆): 3.32 ± 0.1
protein stability index (san1∆): 3.14 ± 0.16
protein stability index (ubr1∆): 3.12 ± 0.066

VEVIKQLSLDASKTNLR [GAL11]
protein stability index (doa10∆): 2.51 ± 0.063
protein stability index (pdr5∆): 2.62 ± 0.073
protein stability index (san1∆): 3.24 ± 0.077
protein stability index (ubr1∆): 2.71 ± 0.049

PSLKDSSSNGGGSAKPS [RPC53]
protein stability index (doa10∆): 2.91 ± 0.18
protein stability index (pdr5∆): 2.82 ± 0.14
protein stability index (san1∆): 2.7 ± 0.27
protein stability index (ubr1∆): 2.93 ± 0.15

SQSACREMALCRELHNK [SSN3]
protein stability index (doa10∆): 2.42 ± 0.089
protein stability index (pdr5∆): 2.38 ± 0.073
protein stability index (san1∆): 2.55 ± 0.11
protein stability index (ubr1∆): 2.8 ± 0.067

EEQKSSDTSKPAFTFGA [YJL041W/NSP1]
protein stability index (doa10∆): 3.25 ± 0.07
protein stability index (pdr5∆): 3.15 ± 0.06
protein stability index (san1∆): 2.89 ± 0.059
protein stability index (ubr1∆): 3.23 ± 0.05

STSVGWKYEDVVAKLED [RPL16B]
protein stability index (doa10∆): 3.31 ± 0.073
protein stability index (pdr5∆): 2.28 ± 0.094
protein stability index (san1∆): 2.48 ± 0.11
protein stability index (ubr1∆): 3.33 ± 0.075

TMHTKTYAAEIAHNISA [RPL32]
protein stability index (doa10∆): 2.34 ± 0.042
protein stability index (pdr5∆): 2.42 ± 0.04
protein stability index (san1∆): 2.21 ± 0.051
protein stability index (ubr1∆): 2.33 ± 0.036

PPQAGDRSLADDYDYVM [RPB8]
protein stability index (doa10∆): 3.23 ± 0.11
protein stability index (pdr5∆): 2.99 ± 0.11
protein stability index (san1∆): 3.33 ± 0.084
protein stability index (ubr1∆): 3 ± 0.09

WRKSDRELTKNILWRIA [SIR4]
protein stability index (doa10∆): 2.91 ± 0.12
protein stability index (pdr5∆): 1.82 ± 0.088
protein stability index (san1∆): 2.09 ± 0.25
protein stability index (ubr1∆): 2.54 ± 0.089

ASKLAAYNKKSTISARE [HTB1]
protein stability index (doa10∆): 3.22 ± 0.12
protein stability index (ubr1∆): 3.21 ± 0.11

DSHKRIPDMSKNVELGW [SNU114]
protein stability index (doa10∆): 3.06 ± 0.17
protein stability index (pdr5∆): 3.28 ± 0.11
protein stability index (san1∆): 2.79 ± 0.13
protein stability index (ubr1∆): 3.41 ± 0.097

KPGSIDAISQVINIAKA [FAS1]
protein stability index (doa10∆): 2.14 ± 0.052
protein stability index (pdr5∆): 2.87 ± 0.061
protein stability index (san1∆): 2.61 ± 0.069
protein stability index (ubr1∆): 2.95 ± 0.033

TPAAATSPIDIREKVAK [SNF2]
protein stability index (doa10∆): 2.75 ± 0.11
protein stability index (pdr5∆): 2.84 ± 0.11
protein stability index (san1∆): 2.63 ± 0.11
protein stability index (ubr1∆): 3.01 ± 0.1

FTIQSFVSSLSNTSTLK [BRR2]
protein stability index (doa10∆): 1.83 ± 0.05
protein stability index (pdr5∆): 1.97 ± 0.041
protein stability index (san1∆): 2.01 ± 0.055
protein stability index (ubr1∆): 2.24 ± 0.034

RRSKMNPLWNAIIVAGV [PRE4]
protein stability index (doa10∆): 2.87 ± 0.097
protein stability index (pdr5∆): 3.25 ± 0.12
protein stability index (san1∆): 2.86 ± 0.097
protein stability index (ubr1∆): 2.93 ± 0.074
